Assays:
[1] = molecular target: adenylyl cyclase 5/6 (AC5/6), endogenous in HEK-293 cells (human (endogenous in HEK-293)) (UniProt O95622); assay: co-IP
[2] = molecular target: caveolin-1 (Cav-1), endogenous in human renal proximal tubule (hRPT) cells (human (endogenous in hRPT cells)) (UniProt Q03135); assay: co-IP
Chain of UniProt Q03135 (Q03135 whole entry): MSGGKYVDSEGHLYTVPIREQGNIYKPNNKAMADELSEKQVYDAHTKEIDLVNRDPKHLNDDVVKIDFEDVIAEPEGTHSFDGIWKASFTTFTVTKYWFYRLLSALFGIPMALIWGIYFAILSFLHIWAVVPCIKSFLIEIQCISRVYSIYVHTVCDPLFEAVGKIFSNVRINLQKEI

| Substance | density of the co-immunoprecipitated band (DU), cells with fenoldopam [1] | density of the co-immunoprecipitated band (DU), cells with fenoldopam [2] | density of the co-immunoprecipitated band (DU), control cells [2] |
| --- | --- | --- | --- |
| human dopamine D1 receptor, Myc-tagged, heterologously expressed in HEK-293 cells (HEK-hD1R) (from UniProt P21728 1-446) | 41.9 DU | – | – |
| human dopamine D5 receptor, V5-tagged, heterologously expressed in HEK-293 cells (HEK-hD5R) (from UniProt P21918 1-477) | 76.2 DU | – | – |
| adenylyl cyclase 5/6 (AC5/6), endogenous in human renal proximal tubule (hRPT) cells (from UniProt O95622 1-1261) (enzyme) | – | 148 DU | 70.3 DU |

Source: paper PMC4166567
